Measurements reported in patent US20180171001A1 (ROCKEFELLER UNIVERSITY, published 2018).

Assays:
Experiment in all cases: cell-based or functional assay
Tro11 = Tro11 (Human immunodeficiency virus 1)
6535_3 = 6535_3 (Human immunodeficiency virus 1)
SC4226618 = SC4226618 (Human immunodeficiency virus 1)

B1: chimeric IgG: 8ANC195 HC paired with mature LC with CDRL2 reverted to germline (antibody, V domains shown)
VH: QIHLVQSGTEVKKPGSSVTVSCKAYGVNTFGLYAVNWVRQAPGQSLEYIGQIWRWKSSASHHFRGRVLISAVDLTGSSPPISSLEIKNLTSDDTAVYFCTTTSTYDKWSGLHHDGVMAFSSWGQGTLISVSA
VL: DIQMTQSPSTLSASIGDTVRISCRASQSITGNWVAWYQQRPGKAPRLLIYKASALLGGVPSRFSGSAAGTDFTLTIGNLQAEDFGTFYCQQYDTYPGTFGQGTKVEVK
IC50 (fold change over 8ANC195 IgG), pseudovirus neutralization [panel B] (Tro11): 62 fold
IC50 (fold change over 8ANC195 IgG), pseudovirus neutralization [panel B] (6535_3): 31 fold
IC50 (fold change over 8ANC195 IgG), pseudovirus neutralization [panel B] (SC4226618): 99 fold
